Laboratory results reported in patent US20070286858A1 (Pfizer, published 2007).
Where a chain is given by its changes, count along the chain named.

Columns and labels:
[1] = molecular target: T1, murine RAGE-strep tag fusion protein (mouse, UniProt Q62151 23-343); assay: ELISA, mRAGE-strep
T1 construct: also called mRAGE-strep; mRAGE-SA
T1 chain: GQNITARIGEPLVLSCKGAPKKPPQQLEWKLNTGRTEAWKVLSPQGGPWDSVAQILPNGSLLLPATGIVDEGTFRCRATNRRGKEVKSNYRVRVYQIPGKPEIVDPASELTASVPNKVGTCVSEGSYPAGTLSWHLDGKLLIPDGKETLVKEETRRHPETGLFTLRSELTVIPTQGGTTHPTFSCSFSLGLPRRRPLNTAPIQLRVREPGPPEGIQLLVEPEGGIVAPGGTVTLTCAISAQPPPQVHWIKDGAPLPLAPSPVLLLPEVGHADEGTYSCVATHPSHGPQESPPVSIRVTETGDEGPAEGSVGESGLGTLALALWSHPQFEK

[2] = molecular target: T2, human RAGE-Fc fusion protein (human, UniProt Q15109 23-344); assay: ELISA, coated hRAGE-Fc
T2 construct: also called hRAGE-Fc; huRAGE-Fc; not shown: Fc domain of human IgG
Method: Antibodies were purified from hybridoma supernatants using standard procedures. Purified antibodies were evaluated for binding to soluble forms of RAGE with the use of ELISA. […] After washing and blocking with PBS containing 1% BSA and 0.05% Tween-20, 100 ul of sample (samples were in several forms: diluted immune serum, hybridoma supernatants, or purified antibodies, as indicated) was added and incubated for 1 hour at room temperature. The plates were washed with PBS, pH 7.2 and bound anti-RAGE antibodies were detected with the use of peroxidase-conjugated goat, anti-mouse IgG (H+L) (IgG) (Pierce, Rockford, Ill.) followed by incubation with the substrate TMB (BioFX Laboratories Owings Mills, Md. Laboratories). Absorbance values were determined at 450 nm in a spectrophotometer. The concentrations of monoclonal antibodies were determined with the use of peroxidase-labeled goat, anti-mouse IgG (Fcγ) (Pierce Rockford, Ill.) and a standard curve was generated by a purified, isotype-matched mouse IgG.

cynomolgus monkey RAGE = molecular target: T3, cynomolgus monkey RAGE (cynomolgus monkey (Macaca fascicularis), UniProt Q15109 23-404 (human entry)); assay: IHC, normal monkey lung, 5 µg/ml
T3 construct: On transfected 293 cells or endogenous in monkey lung sections; also called 293-cyno monkey RAGE; RAGE in monkey lung
T3 chain: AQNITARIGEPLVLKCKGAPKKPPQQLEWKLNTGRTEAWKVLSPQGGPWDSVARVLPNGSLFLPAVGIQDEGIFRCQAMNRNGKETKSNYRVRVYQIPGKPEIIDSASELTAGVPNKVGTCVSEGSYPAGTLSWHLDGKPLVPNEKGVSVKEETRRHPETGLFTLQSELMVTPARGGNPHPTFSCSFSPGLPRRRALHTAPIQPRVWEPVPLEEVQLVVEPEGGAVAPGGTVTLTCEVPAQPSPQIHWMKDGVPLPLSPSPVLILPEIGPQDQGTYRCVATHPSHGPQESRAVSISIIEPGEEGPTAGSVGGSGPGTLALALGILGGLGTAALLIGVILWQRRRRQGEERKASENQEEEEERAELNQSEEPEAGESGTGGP
Method: (§1) Immunohistochemistry for RAGE lung tissues isolated from baboon, cynomolgus monkey, rabbit or Chinese Hamster Ovary cells over-expressing human RAGE or control CHO cells were performed using standard techniques. RAGE antibodies and rat IgG2b isotype control or mouse isotype control were used at […]. […] Following detection with HRP and Alexa Fluor 594, Alexa Fluor 488 or anti-biotin conjugated with FITC, sections were also stained with 4′-6-Diamidino-2-phenylindole (DAPI).
(§2) CHO cells stable transfected with an expression vector that expresses DNA encoding hRAGE is used as a positive control.

baboon RAGE = molecular target: T4, baboon RAGE (baboon (Papio cyanocephalus), UniProt Q15109 23-404 (human entry)); assay: IHC, septic baboon lung, 1 µg/ml
T4 construct: On transfected 293 cells or endogenous in baboon lung sections; also called 293-baboon RAGE; RAGE in baboon lung
T4 chain: T3 chain with G347R
Method: as §1, §2

human RAGE, full length = molecular target: T5, human RAGE, full length (human, UniProt Q15109 23-404); assay: IHC, CHO cells expressing hRAGE, 1 µg/ml
T5 construct: Expressed on 293 or CHO cells, or endogenous in human lung sections; also called hRAGE; cell-surface hRAGE
Method: as §1, §2

murine RAGE, full length = molecular target: T6, murine RAGE, full length (mouse, UniProt Q62151 23-402); assay: FACS, 293 cells infected with murine RAGE adenovirus
T6 construct: Expressed on 293 cells; also called mRAGE; 293-murine RAGE
T6 chain: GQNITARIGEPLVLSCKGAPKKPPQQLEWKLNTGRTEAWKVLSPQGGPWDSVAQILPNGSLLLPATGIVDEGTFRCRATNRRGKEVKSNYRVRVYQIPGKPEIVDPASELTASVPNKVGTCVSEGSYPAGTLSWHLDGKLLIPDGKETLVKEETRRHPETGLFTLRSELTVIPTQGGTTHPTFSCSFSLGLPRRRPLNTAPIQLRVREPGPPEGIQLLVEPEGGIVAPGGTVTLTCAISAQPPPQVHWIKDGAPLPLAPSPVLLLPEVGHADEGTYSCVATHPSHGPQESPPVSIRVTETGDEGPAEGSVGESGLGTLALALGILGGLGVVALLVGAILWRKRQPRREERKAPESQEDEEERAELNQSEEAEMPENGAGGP
Method: Human 293 cells were infected with the human and murine RAGE adenovirus. Infected cells were suspended in PBS containing 1% BSA at a density of 4×10⁴ cells/ml. Cells were incubated with 100 ul of sample (diluted immune sera, hybridoma supernatants or purified antibodies) for 30 min at 4° C. After washing, cells were incubated with PE-labeled goat, anti-mouse, IgG, F(ab′)₂ (DAKO Corporation GlostrupDenmark) for 30 min at 4° C. in the dark. Cell-associated fluorescence signals were measured by a FACScan flow cytofluorometer (Becton Dickinson) using 5000 cells per treatment. Propidium iodide was used to identify dead cells, which were excluded from the analysis.

Measured: binding result

B1: XT-H1 (antibody, mouse IgG1, V domains shown)
VH: QVQLKESGPGLVAPSQSLSITCTISGFSITSYGVHWVRQPPGKGLEWLVVIWSDGRTTYNSTLKSRLSISKDNSKSQVFLKMNSLQTDDTAMYYCVRHGGYFPYAMDYWGQGTSVTVSS
VL: DIQMTQSPSSLSTSLGGKVTITCKASQDINKFIAWYQHTPGKGPRLFIYYTSTLQPGIPSRFSGNGSGRDYSFSISNLEPEDIATYYCLQYDNMYTFGGGTKLEIK
notes: also called 1hRAGEP3/6; murine anti-huRAGE monoclonal antibody XT-H1
binds: all assays above
